This passage reports Kd results from patent US20250179183A1.

In general, Kd refers to a measure of binding affinity in units of concentration.

In assay [1] the target is cynomolgus monkey CD32a (cynomolgus monkey).
The target is the same in assay [2]. This is another data set of the same source.
For assay [3], the target named is cynomolgus monkey CD32b (cynomolgus monkey).

Like-named read-outs stand apart in the source and are kept apart here.

Regarding Rituximab (antibody), the values for the Kd in assay [1], in assay [2] and in assay [3] were 5.94 µM, 3.13 µM and 1.46 µM, respectively.
